From patent US20060141569A1 (published 2006)

Columns and labels:
[1] = target: T1, C5aR transfected into CHEM-1 cells using the pHS vector (UniProt P21730 1-350); experiment: binding
T1 chain: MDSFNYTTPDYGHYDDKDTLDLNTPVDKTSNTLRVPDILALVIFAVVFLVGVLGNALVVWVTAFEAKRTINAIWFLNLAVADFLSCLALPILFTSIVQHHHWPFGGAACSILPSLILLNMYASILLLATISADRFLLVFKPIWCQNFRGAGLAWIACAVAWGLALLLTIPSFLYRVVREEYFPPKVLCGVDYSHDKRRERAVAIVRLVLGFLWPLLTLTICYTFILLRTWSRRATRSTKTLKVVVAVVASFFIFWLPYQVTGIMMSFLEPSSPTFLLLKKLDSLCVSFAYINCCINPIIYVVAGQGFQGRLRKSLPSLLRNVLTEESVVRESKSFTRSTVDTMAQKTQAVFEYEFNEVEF

C5aR+Gα15/CHO [2] = experiment: binding; two sites, site 2
C5aR+Gα15/CHO [3] = experiment: binding; two sites, site 1

B1: C5a (ligand)
chain: TLQKKIEEIAAKYKHSVVKKCCYDGACVNNDETCEQRAARISLGPRCIKAFTECCVVASQLRANISHKDMQLGR
- Ki [1]: 0.5 nM
- Ki (C5aR+Gα15/CHO [2]): 34 nM
- Ki (C5aR+Gα15/CHO [3]): 0.6 nM
